Measurements reported in patent US12178803B2, “CD47 blockade with PARP inhibition for disease treatment” (TRILLIUM THERAPEUTICS ULC, priority 2018, dated 2024).

Assay: Systemic toxicity by clinical parameter scoring in the xenograft study
Assay type: in vivo
Settings: SIRPαFc added to niraparib and/or RT
Experimental: Niraparib (50 mg/kg) was administered 1 hour prior to RT, 5 times per week for 1 week. Mice were treated with whole abdomen radiotherapy (external beam radiation therapy) at a dose of 2 Gy for 2 fractions using an image-guided small animal irradiator (225 kVp, 13 mA). Treatment was initiated on day 7 following tumor inoculation. Treatment efficacy was assessed by bioluminescent imaging (BLI) and animal survival. Systemic toxicity was evaluated by clinical parameter scoring.

Substance: SIRPαFc: CD47 blocking fusion protein: IgV domain of human SIRPα V2 fused to a human IgG Fc region; preferred SEQ ID NO:8
- additional toxicity when combined with PARPi (niraparib) and/or RT: without showing additional toxicity
